Mean Signal Value data for 1 molecule are collected here from patent US20070105771A1.

Assay in all cases: peptide microarray
For assay [1], the target named is T1, human CD26-derived 13 mer peptide 121 (human).
T1 sequence (peptide): TAPASMLIGDHYL

The target of assay [2] is T2, human CD26-derived 13 mer peptide 125 (human).
T2 sequence (peptide): GDHYLCDVTWATQ

In assay [3] the target is T3, human CD26-derived 13 mer peptide 13 (human).
T3 sequence (peptide): QENNILVFNAEYG

The target in assay [4] is T4, human CD26-derived 13 mer peptide 16 (human).
T4 sequence (peptide): VFNAEYGNSSVFL

The target of assay [5] is T5, human CD26-derived 13 mer peptide 29 (human).
T5 sequence (peptide): DYSISPDGQFILL

Assay [6] addresses T6, human CD26-derived 13 mer peptide 31 (human).
T6 sequence (peptide): SPDGQFILLEYNY

Assay [7] deals with T7, human CD26-derived 13 mer peptide 69 (human).
T7 sequence (peptide): RITWTGKEDIIYN

Assay [8] has as its target T8, human CD26-derived 13 mer peptide 91 (human).
T8 sequence (peptide): FNDTEVPLIEYSF

B1: rhuMAb 411 (antibody, human IgG1, kappa, V domains shown)
VH: EVQLVESGAGVKQPGGTLRLTCTASGFSLTTYGVHWVRQAPGKGLEWVGVIWGDGRTDYDAAFMSRVTISKDTSKSTVYLQMNSLRAEDTAVYYCMRNRHDWFDYWGQGTTVTVSS
VL: DILLTQSPSSLSATPGERATITCRASQGIRNNLNWYQQKPGQAPRLLIYYSSNLQSGVPSRFSGSGSGTDFTLTISRLQPEDVAAYYCQQSIKLPFTFGSGTKVEIKR
As to B1, the Mean Signal Value was determined as 2.08 in assay [1]; 1.8 in assay [2]; 1.94 in assay [3]; 1.92 in assay [4]; 2.16 in assay [5]; 2.33 in assay [6]. The values for the Mean Signal Value in assay [7] and in assay [8] were 2.45 and 2.3, respectively.
